Data on 2 molecules can be found in patent US6627405 (CURAGEN, dated 2003).

Common to all, as to experiment: yeast two hybrid mating, growth on selective medium
In experiment [1] the target is T1, MDM2 (GenBank Acc. No. M92424) (UniProt Q00987 1-491, limits assumed).
T1 construct: Bait hybrid expressed in yeast strain N106r; also called MDM2 bait
Here is the method:
(§1) The two mating strains, alpha and a, were then, diluted in YAPD media (Sherman et al., eds., 1991, *Getting Started with Yeast*, Vol. 194, Academic Press, New York), filtered onto nitrocellulose membranes, and incubated at 30 degrees Celsius for 6–8 hours. The cells were then transferred to media selective for the desired diploids, i.e., yeast harboring reporter genes for beta-galactosidase, uracil auxotrophy, and histidine auxotrophy, and expression of the vectors encoding the bait and prey. The mating products were plated on SC (synthetic complete) (Kaiser et al. eds., 1994, *Methods in Genetics*, 1994 ed., Cold Spring Harbor Press, New York, p. 209) media lacking adenine and lysine (to select for successful mating), leucine and tryptophan (to select for expression of genes encoded by both the bait and prey plasmids), and uracil and histidine (to select for protein interactions). This medium is herein referred to as SCS medium, for SC Selective medium.
(§2) No. X03541, Martin-Zanca, et al., 1986, Nature 319: 743–748), EST M62042 (Adams et al., 1991, Science 252: 1651–1656), Ral GDS (GenBank Acc. No. U14417, Hofer, et al., 1994, Proc. Natl. Acad. Sci. U.S.A. 91: 11089–11093) or E2F (GenBank Acc. […] No. M92424, Oliner et al., 1994, direct submission), CAS (GenBank Acc. No. U33286, Brinkmann et al., 1995, Proc. Natl. Acad. Sci. U.S.A. 92: 10427–10431), and PA9 (GenBank Acc. No. S82076, Yang et al., 1996, Carcinogenesis 17:563–567) Specifically, lack of growth for p62 and β-tubulin interactions with MDM2 is depicted in FIG. 7.

Experiment [2] has as its target T2, CAS (GenBank Acc. No. U33286) (UniProt P55060 1-971, limits assumed).
T2 construct: Bait hybrid expressed in yeast strain N106r
T2 sequence (looked up): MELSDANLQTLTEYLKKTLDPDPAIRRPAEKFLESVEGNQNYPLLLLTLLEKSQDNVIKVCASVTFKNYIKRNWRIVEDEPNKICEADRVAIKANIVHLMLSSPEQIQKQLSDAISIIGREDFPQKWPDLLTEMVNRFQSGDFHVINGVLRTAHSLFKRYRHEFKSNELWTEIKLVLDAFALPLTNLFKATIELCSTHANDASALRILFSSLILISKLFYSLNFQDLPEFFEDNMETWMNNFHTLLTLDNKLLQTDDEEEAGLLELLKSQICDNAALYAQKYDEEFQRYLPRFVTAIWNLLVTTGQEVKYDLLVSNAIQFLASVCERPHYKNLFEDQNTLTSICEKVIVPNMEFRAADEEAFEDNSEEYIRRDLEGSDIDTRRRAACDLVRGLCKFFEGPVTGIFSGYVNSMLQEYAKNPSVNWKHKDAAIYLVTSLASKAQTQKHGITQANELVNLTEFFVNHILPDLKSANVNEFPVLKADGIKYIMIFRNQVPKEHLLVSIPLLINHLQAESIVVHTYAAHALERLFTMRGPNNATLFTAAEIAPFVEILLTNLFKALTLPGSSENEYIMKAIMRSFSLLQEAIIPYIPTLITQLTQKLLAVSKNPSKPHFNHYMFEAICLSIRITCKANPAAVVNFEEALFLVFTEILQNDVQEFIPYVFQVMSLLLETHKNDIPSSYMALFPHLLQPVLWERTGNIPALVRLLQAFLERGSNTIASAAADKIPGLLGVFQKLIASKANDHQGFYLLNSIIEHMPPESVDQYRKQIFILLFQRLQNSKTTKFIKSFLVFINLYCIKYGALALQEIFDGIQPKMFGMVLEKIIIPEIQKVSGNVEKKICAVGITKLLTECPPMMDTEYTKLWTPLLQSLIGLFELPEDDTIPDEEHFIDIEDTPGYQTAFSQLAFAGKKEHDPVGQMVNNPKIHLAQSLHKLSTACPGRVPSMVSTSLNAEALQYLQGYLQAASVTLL
Here is the method: as §1, §2

For experiment [3], the target named is T3, Ral GDS (GenBank Acc. No. U14417) (UniProt Q12967 1-914, limits assumed).
T3 construct: Expressed as a Gal4 hybrid in yeast
T3 sequence (looked up): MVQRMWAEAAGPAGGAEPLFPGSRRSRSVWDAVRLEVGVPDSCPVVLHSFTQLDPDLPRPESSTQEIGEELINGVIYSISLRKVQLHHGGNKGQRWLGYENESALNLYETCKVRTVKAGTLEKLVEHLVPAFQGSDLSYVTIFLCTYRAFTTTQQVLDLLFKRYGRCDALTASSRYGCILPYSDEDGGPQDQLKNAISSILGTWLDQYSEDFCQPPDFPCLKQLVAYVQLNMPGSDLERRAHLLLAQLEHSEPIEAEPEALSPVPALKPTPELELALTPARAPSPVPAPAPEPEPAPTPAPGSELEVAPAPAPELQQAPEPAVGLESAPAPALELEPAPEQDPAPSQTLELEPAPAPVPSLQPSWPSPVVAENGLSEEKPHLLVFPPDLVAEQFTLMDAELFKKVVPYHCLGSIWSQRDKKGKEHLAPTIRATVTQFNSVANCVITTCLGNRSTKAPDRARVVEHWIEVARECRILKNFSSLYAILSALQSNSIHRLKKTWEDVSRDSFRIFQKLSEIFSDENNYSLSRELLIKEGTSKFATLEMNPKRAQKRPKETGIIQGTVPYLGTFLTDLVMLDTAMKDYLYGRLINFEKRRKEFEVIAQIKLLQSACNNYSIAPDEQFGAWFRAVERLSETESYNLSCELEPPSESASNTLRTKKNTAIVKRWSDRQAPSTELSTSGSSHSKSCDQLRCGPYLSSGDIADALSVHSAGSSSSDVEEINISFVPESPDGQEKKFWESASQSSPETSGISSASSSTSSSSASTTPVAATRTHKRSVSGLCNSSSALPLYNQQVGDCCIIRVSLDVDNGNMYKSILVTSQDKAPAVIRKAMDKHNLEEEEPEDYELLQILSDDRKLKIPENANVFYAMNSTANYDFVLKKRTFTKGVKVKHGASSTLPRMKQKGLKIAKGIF
On the procedure:
as §1, §2

Experiment [4] concerns the target T4, pRb (GenBank Acc. No. M28419) (UniProt P06400 1-928, limits assumed).
T4 construct: Expressed as a Gal4 hybrid in yeast
T4 sequence (looked up): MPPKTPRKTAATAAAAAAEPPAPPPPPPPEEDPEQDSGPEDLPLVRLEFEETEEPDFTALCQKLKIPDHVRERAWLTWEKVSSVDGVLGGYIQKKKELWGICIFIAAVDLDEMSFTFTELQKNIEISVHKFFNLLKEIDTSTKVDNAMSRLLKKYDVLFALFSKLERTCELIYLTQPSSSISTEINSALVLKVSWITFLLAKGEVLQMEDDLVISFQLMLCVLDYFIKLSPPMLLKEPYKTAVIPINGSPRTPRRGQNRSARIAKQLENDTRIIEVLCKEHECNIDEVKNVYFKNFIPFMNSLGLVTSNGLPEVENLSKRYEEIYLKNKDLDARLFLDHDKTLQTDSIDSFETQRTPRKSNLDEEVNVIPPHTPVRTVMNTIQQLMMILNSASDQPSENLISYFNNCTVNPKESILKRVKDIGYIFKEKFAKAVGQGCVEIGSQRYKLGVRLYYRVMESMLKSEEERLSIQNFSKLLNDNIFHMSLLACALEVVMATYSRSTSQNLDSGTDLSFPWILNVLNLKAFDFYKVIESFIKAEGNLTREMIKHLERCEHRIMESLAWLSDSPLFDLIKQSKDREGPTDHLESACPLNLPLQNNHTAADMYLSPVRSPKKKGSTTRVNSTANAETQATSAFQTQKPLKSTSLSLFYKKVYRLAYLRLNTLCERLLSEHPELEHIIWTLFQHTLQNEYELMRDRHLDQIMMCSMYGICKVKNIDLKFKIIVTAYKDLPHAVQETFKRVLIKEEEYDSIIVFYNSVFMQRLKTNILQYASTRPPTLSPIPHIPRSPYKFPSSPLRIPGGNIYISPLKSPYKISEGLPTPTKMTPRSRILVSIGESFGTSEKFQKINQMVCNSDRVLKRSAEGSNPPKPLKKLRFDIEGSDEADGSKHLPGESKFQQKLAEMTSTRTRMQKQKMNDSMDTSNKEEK
Here is the method:
as §1, §2

T1 sequence (Q00987 whole entry, one chain of several): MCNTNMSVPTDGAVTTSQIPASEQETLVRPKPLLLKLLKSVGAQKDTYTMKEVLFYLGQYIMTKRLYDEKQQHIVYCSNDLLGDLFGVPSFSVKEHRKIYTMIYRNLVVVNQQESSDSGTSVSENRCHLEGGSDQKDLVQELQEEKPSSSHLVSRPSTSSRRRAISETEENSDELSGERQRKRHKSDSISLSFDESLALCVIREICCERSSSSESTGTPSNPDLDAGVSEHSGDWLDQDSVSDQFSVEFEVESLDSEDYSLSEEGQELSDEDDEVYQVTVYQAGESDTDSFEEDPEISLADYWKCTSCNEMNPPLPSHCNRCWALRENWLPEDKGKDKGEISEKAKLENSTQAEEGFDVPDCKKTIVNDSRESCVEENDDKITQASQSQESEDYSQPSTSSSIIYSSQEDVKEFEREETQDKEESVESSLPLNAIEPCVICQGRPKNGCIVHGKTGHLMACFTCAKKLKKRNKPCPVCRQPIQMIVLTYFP

B1: p62 prey sequence, amino acids 275-443 (other, yeast)
chain: NGVPEPSRGRGVPVRGRGAAPPPPPVPRGRGVGPPRGALVRGTPVRGAITRGATVTRGVPPPPTVRGAPAPRARTAGIQRIPLPPPPAPETYEEYGYDDTYAEQSYEGYEGYYSQSQGDSEYYDYGHGEVQDSYEAYGQDDWNGTRPSLKAPPARPVKGAYREHPYGRY
For the molecule B1, the binding result in experiment [1] and in experiment [2] was “no binding” throughout.

B2: 53BP2 bait fragment, amino acids 704-1005 (C-terminus) of human 53BP2 (other)
chain: SPGLDYEPEGVPDNSPNLQNNPEEPNPEAPHVLDVYLEEYPPYPPPPYPSGEPEGPGEDSVSMRPPEITGQVSLPPGKRTNLRKTGSERIAHGMRVKFNPLALLLDSSLEGEFDLVQRIIYEVDDPSLPNDEGITALHNAVCAGHTEIVKFLVQFGVNVNAADSDGWTPLHCAASCNNVQVCKFLVESGAAVFAMTYSDMQTAADKCEEMEEGYTQCSQFLYGVQEKMGIMNKGVIYALWDYEPQNDDELPMKEGDCMTIIHREDEDEIEWWWARLNDKEGYVPRNLLGLYPRIKPRQRSLA
notes: also called BBP; not shown: residues not
As to B2, the binding result in experiment [3] and in experiment [4] was “no binding” in each case.
